Data as given in patent US20260250318A1, “COMPOSITIONS AND METHODS FOR CROSSING THE BLOOD BRAIN BARRIER” (VOYAGER THERAPEUTICS, INC., priority 2022, published 2026).
Where a chain is given by its changes, count along the chain named.

Key:
[1] = tested on: GPI anchored proteins (endogenous ALPL) on HeLa cells; experiment: Transduction of HeLa cells after PI/PLC removal of GPI anchored proteins; assay type: cell-based, human; settings: 1E4 VG/cell
Procedure: Endogenous ALPL was also removed from the surface of HeLa cells by treatment with increasing concentrations phosphatidylinositol-specific phospholipase C (PI/PLC), which cleaves GPI anchored proteins (0, 1, 3, 6, or 10 U/mL), for 1.5 hours at 37° C. Following PI/PLC treatment, cells were incubated with 1E4 VG/cell for three hours of AAV particles comprising the TTM-002 capsid variant or AAV particles comprising an AAV9 control capsid, cells were then washed to remove free virus, and luciferase activity was measured 24 hours post-transduction (RLU).

[2] = biological target: T1, ALPL on HeLa cells (Homo sapiens, UniProt P05186); experiment: Transduction of HeLa cells after blocking with an anti-ALPL antibody; assay type: cell-based; settings: for Transduction in Hela cells as measured by luciferase assay (RLU): 1E4 VG/cell
T1 construct: knockdown endogenous levels of ALPL in HeLa cells; endogenous in cells; host or cells: HeLa
T1 sequence (P05186 18-501): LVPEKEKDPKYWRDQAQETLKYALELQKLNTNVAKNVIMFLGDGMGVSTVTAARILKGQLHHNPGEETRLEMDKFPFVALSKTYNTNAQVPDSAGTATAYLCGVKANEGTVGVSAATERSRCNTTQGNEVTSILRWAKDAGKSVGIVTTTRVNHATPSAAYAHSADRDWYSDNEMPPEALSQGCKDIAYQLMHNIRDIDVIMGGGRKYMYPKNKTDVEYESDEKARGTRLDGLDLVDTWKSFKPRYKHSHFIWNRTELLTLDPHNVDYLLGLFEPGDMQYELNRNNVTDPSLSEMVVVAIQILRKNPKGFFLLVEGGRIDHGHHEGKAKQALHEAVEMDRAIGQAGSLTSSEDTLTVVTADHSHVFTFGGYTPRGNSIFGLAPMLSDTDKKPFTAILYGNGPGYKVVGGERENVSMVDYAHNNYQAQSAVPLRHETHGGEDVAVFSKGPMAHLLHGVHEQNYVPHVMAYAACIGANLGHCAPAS
Procedure: Following incubation, the cells were transduced with 1E4 VG/cell of AAV particles comprising the TTM-002 capsid variant or an AAV9 control expressing a GFP-luciferase payload. After a 4 hour incubation period the AAV and media were removed and replaced with fresh media and luciferase activity was measured (RLU) 24 hours post transduction.

[3] = tested on: brain; experiment: NGS fold enrichment of AAV capsid variant library, second passage in NHPs; assay type: in vivo, NHP; settings: second passage (P2) in NHPs
Excerpt: A TRACER based method as described in WO2020072683, WO 2021/202651, and WO2021230987, the contents of which are herein incorporated by reference in their entirety, was used to generate the AAV capsid variants described herein. An orthogonal evolution approach was combined with a high throughput screening by NGS. Briefly, the library of AAV capsid variants was generated using a sliding window approach, where 6 amino acid sequences were inserted into 8 different positions across loop IV of AAV9, including immediately subsequent to positions 453, 454, 455, 456, 457, 458, 459, and 460, relative to a reference sequence numbered according to SEQ ID NO: 138. The initial library was passed twice through non-human primates (NHP, 2-4 years of age). After the second passage (e.g., 28 days post injection into two NHPs), RNA was extracted from six brain regions. […]
A second cross-species evolution screen was performed using an AAV capsid variant library with a modification in loop IV introduced as described above and passaging it once through NHPs (passage 1) and then subsequently injected it into two different strains of mice (passage 2), C57Bl/6 and BALB/c. The fold-enrichment for each variant in the brain of each mouse species was calculated by systematic NGS enrichment analysis following RNA recovery and RT-PCR amplification. […]

[4] = tested on: brain, spinal cord, and DRG of the NHPs; experiment: NGS fold enrichment of synthetic library (passage 3) in NHPs, first cross-species screen; assay type: in vivo, cynomolgus macaques (Macaca fascicularis); settings: for fold enrichment in the DRG of NHPs relative to AAV9 / fold enrichment in the brain of NHPs relative to AAV9 / fold enrichment in the spinal cord of NHPs relative to AAV9: passage 3, intravenous; for Fold enrichment over AAV9 in the brain of NHPs / Fold enrichment over AAV9 in the spinal cord of NHPs: synthetic library passage 3, intravenous, RNA NGS, relative to wild-type AAV9
Summary of the method: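 Synthetic capsid library (passage 3) was given intravenously […] to NHPs aged 2-4 years and to BALB/c and C57Bl/6 mice (n=3 each, 6-8 weeks). After about 28 days in vivo, tissue RNA was RT-PCR amplified and NGS-sequenced; values are fold enrichment per variant relative to wild-type AAV9.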

[5] = IgG isotype control 3.125 μg/mL

AAV9: wild-type AAV9 control capsid [reference compound]
Transduction in HeLa as measured by luciferase assay (RLU) following treatment with PI/PLC ([1]; PI/PLC 0 U/mL): 239.3 RLU | Transduction in HeLa as measured by luciferase assay (RLU) following treatment with PI/PLC ([1]; PI/PLC 1 U/mL): 193.7 RLU | Transduction in HeLa as measured by luciferase assay (RLU) following treatment with PI/PLC ([1]; PI/PLC 3 U/mL): 222 RLU | Transduction in HeLa as measured by luciferase assay (RLU) following treatment with PI/PLC ([1]; PI/PLC 6 U/mL): 207.7 RLU | Transduction in HeLa as measured by luciferase assay (RLU) following treatment with PI/PLC ([1]; PI/PLC 10 U/mL): 212 RLU | Transduction in Hela cells as measured by luciferase assay (RLU) ([2]; Anti-ALPL antibody 0 μg/mL): 530.67 RLU | Transduction in Hela cells as measured by luciferase assay (RLU) ([2]; Anti-ALPL antibody 3.125 μg/mL): 527.33 RLU | Transduction in Hela cells as measured by luciferase assay (RLU) ([2]; Anti-ALPL antibody 6.25 μg/mL): 451.67 RLU | Transduction in Hela cells as measured by luciferase assay (RLU) ([2]; Anti-ALPL antibody 12.5 μg/mL): 417.33 RLU | Transduction in Hela cells as measured by luciferase assay (RLU) ([2]; IgG isotype control 0 μg/mL): 433.33 RLU | Transduction in Hela cells as measured by luciferase assay (RLU) [2, 5]: 457.67 RLU | Transduction in Hela cells as measured by luciferase assay (RLU) ([2]; IgG isotype control 6.25 μg/mL): 516.33 RLU | Transduction in Hela cells as measured by luciferase assay (RLU) ([2]; IgG isotype control 12.5 μg/mL): 551.33 RLU

B1: TTM-001: AAV9 capsid variant comprising SPHSKA (SEQ ID NO: 941) in loop IV (protein)
chain 1: MAADGYLPDWLEDNLSEGIREWWALKPGAPQPKANQQHQDNARGLVLPGYKYLGPGNGLDKGEPVNAADAAALEHDKAYDQQLKAGDNPYLKYNHADAEFQERLKEDTSFGGNLGRAVFQAKKRLLEPLGLVEEAAKTAPGKKRPVEQSPQEPDSSAGIGKSGAQPAKKRLNFGQTGDTESVPDPQPIGEPPAAPSGVGSLTMASGGGAPVADNNEGADGVGSSSGNWHCDSQWLGDRVITTSTRTWALPTYNNHLYKQISNSTSGGSSNDNAYFGYSTPWGYFDFNRFHCHFSPRDWQRLINNNWGFRPKRLNFKLFNIQVKEVTDNNGVKTIANNLTSTVQVFTDSDYQLPYVLGSAHEGCLPPFPADVFMIPQYGYLTLNDGSQAVGRSSFYCLEYFPSQMLRTGNNFQFSYEFENVPFHSSYAHSQSLDRLMNPLIDQYLYYLSKTINGSGSPHSKAQNQQTLKFSVAGPSNMAVQGRNYIPGPSYRQQRVSTTVTQNNNSEFAWPGASSWALNGRNSLMNPGPAMASHKEGEDRFFPLSGSLIFGKQGTGRDNVDADKVMITNEEEIKTTNPVATESYGQVATNHQSAQAQAQTGWVQNQGILPGMVWQDRDVYLQGPIWAKIPHTDGNFHPSPLMGGFGMKHPPPQILIKNTPVPADPPTAFNKDKLNSFITQYSTGQVSVEIEWELQKENSKRWNPEIQYTSNYYKSNNVEFAVNTEGVYSEPRPIGTRYLTRNL
chain 2: GSGSPHSKAQNQQT
Fold enrichment over AAV9 in NHPP2 [3]: 56.33 fold | fold enrichment in the DRG of NHPs relative to AAV9 [4]: 0.4 fold | fold enrichment in the brain of NHPs relative to AAV9 [4]: 73.6 fold | fold enrichment in the brain of NHPs relative to AAV9 ([4]; listed as GSGSPHSKAQNQQT): 76.6 fold | fold enrichment in the spinal cord of NHPs relative to AAV9 [4]: 29.4 fold | Fold enrichment over AAV9 in the brain of NHPs [4]: 73.615 fold | Fold enrichment over AAV9 in the spinal cord of NHPs [4]: 29.402 fold

B2: TTM-002: AAV9 capsid variant comprising HDSPHK (SEQ ID NO: 2) in loop IV (protein)
chain 1: B1 chain 1 with S454H, G455D, S459K, K460S, A461G
chain 2: GHDSPHKSGQNQQT
Fold enrichment over AAV9 in NHPP2 [3]: 33.96 fold | fold enrichment in the DRG of NHPs relative to AAV9 [4]: 0.0 fold | fold enrichment in the brain of NHPs relative to AAV9 [4]: 62.6 fold | fold enrichment in the spinal cord of NHPs relative to AAV9 [4]: 15.6 fold | Fold enrichment over AAV9 in the brain of NHPs [4]: 62.612 fold | Fold enrichment over AAV9 in the spinal cord of NHPs [4]: 15.641 fold | transduction after PI/PLC treatment ([1]; HeLa, luciferase 24 hours): significantly decreased transduction | Transduction in HeLa as measured by luciferase assay (RLU) following treatment with PI/PLC ([1]; PI/PLC 0 U/mL): 1731 RLU | Transduction in HeLa as measured by luciferase assay (RLU) following treatment with PI/PLC ([1]; PI/PLC 1 U/mL): 474 RLU | Transduction in HeLa as measured by luciferase assay (RLU) following treatment with PI/PLC ([1]; PI/PLC 3 U/mL): 441 RLU | Transduction in HeLa as measured by luciferase assay (RLU) following treatment with PI/PLC ([1]; PI/PLC 6 U/mL): 396.7 RLU | Transduction in HeLa as measured by luciferase assay (RLU) following treatment with PI/PLC ([1]; PI/PLC 10 U/mL): 239.3 RLU | Transduction in Hela cells as measured by luciferase assay (RLU) ([2]; Anti-ALPL antibody 0 μg/mL): 4701 RLU | Transduction in Hela cells as measured by luciferase assay (RLU) ([2]; Anti-ALPL antibody 3.125 μg/mL): 5042.67 RLU | Transduction in Hela cells as measured by luciferase assay (RLU) ([2]; Anti-ALPL antibody 6.25 μg/mL): 5220 RLU | Transduction in Hela cells as measured by luciferase assay (RLU) ([2]; Anti-ALPL antibody 12.5 μg/mL): 5556.67 RLU | transduction in the presence of anti-ALPL antibody vs isotype control ([2]; HeLa, 0-12.5 μg/mL antibody): decreased TTM-002 transduction in a dose dependent manner | Transduction in Hela cells as measured by luciferase assay (RLU) ([2]; IgG isotype control 0 μg/mL): 4113.33 RLU | Transduction in Hela cells as measured by luciferase assay (RLU) [2, 5]: 527.33 RLU | Transduction in Hela cells as measured by luciferase assay (RLU) ([2]; IgG isotype control 6.25 μg/mL): 186.67 RLU | Transduction in Hela cells as measured by luciferase assay (RLU) ([2]; IgG isotype control 12.5 μg/mL): 136 RLU
